Entries after “also recorded” stand apart in the source; their conditions may differ.
Experiments:
[1] = Preparative size exclusion chromatography of acVHH variants; format: physicochemical; settings: HiLoad Superdex 75 pg, elution in PBS
Protocol: Protein aggregates were removed via preparative size exclusion chromatography (SEC). The samples were first centrifuged at 16 000 rpm for 3 min to remove large aggregates and the supernatant was loaded onto a HiLoad Superdex 75 pg column connected to a Bio-Rad NG-C chromatography system. Elution was performed in PBS and the fractions containing proteins based on absorbance at 280 nm were pooled, concentrated as mentioned above and stored at −30° C.

acVHH-V104D [2] = test: NanoBiT protein complementation assay in Jurkat T cells, intracellular binding to acVHH-V104D; format: cell-based, llama; settings: for background signal in the absence of caffeine / background signal at very low concentrations of caffeine: compared with acVHH-WT/acVHH-WT homodimers
Description: (§1) The ac VHH variants were N-terminally fused to an extracellular globular domain used to assess expression, as well as a transmembrane domain, and C-terminally fused to a subunit of the split NanoLuc (NanoBiT® system), Promega. Thus, the resulting fusion protein consisted of an extracellular globular domain, followed by a transmembrane domain and intracellular ac VHH variants followed by a subunit of split NanoLuc luciferase.
The different chains built were as follows: the first polypeptide chain comprised truncated EGFR extracellular and transmembrane domain, followed by a 2×G4S linker and cither ac VHH-V104D or ac VHH-WT, followed by a linker (SEQ ID NO:31) and 11S NanoBiT® “Large BiT”, whereas the second polypeptide chain comprised truncated HER2 extracellular and transmembrane domain, followed by a linker (SEQ ID NO:32) and either ac VHH-V104D or ac VHH-WT or ac VHH-M1 or acVHH-M2 or dfM1-1 or dfM1-2, followed by a linker (SEQ ID NO:33) and 114 NanoBiT® “Small BiT”. The sequence of the truncated HER2 extracellular and transmembrane domain involved the amino acids at positions 339-683 according to the deposited Uniprot sequence (ID P04626). The sequence of the truncated EGFR extracellular and transmembrane domain involved the amino acids at positions 334-675 according to the deposited Uniprot sequence (ID P00533). The principle of the assay is as follows: upon binding of (i.e. dimerization) of the respective ac VHH variants, the fused NanoLuc luciferase subunits are brought into close proximity (the two subunits being fused to the two different polypeptide chains, respectively), thus resulting in a functional luciferase enzyme, whose activity can be measured.
In vitro transcription was performed with 200 ng of purified PCR product using the mMessage mMachine T7 Ultra Kit (Ambion) according to the manufacturer's instructions. The resulting mRNAs were column purified with the RNeasy Kit (Qiagen), aliquoted to 5 μg and frozen at −80° C. until electroporation. Jurkat T cells were electroporated with 5 μg mRNA per chain (10 μg mRNA total) using the Gene Pulser (Bio-Rad) and the following parameters: square wave protocol, 500 V, 5 ms, 4 mm cuvettes.
Intracellular function of the dimers was assessed with the Nano-Glo® Luciferase Assay System (Promega).

acVHH-V104D [3] = test: Yeast surface display binding of acVHH variants to soluble acVHH-V104D; design: species or system llama; settings: for background binding signal in the absence of any small molecule: 500 nM soluble acVHH-V104D, buffer only (control, PBSA); for affinity towards acVHH-V104D: summary statement, interaction dependent on caffeine; for dependency of heterodimerization with acVHH-V104D on the presence of caffeine: yeast display flow cytometry, with or without caffeine; for affinity (KD) to acVHH-V104D: titration with soluble acVHH-V104D in the presence of 30 μM caffeine
Protocol: The staining for flow cytometry characterization was performed in PBSA (PBS containing 15 μM bovine serum albumin). […] In addition, controls with buffer only (containing neither an ac VHH variant nor caffeine) were included. After a washing step the cells were stained for 20 min at 4° C. and shaking with either streptavidin-Alexa Fluor 647 (Invitrogen) or Penta-His-Alexa Fluor 647 (Qiagen) to assess acVHH-V104D or acVHH-WT binding, as well as anti-HA-Alexa Fluor 488 (clone 16B12, Biolegend) or anti-c-myc AlexaFluor 488 (9E10, Thermofisher) to assess display (anti-HA) or full-length display (anti-c-myc) of the acVHH variants, respectively. After a final washing step, the cells were analyzed with a CytoFLEX S flow cytometer (Beckman Coulter).
Expression of the acVHH variants on yeast was induced by culturing the cells in SG-CAA medium (20 g/L galactose, 2 g/L glucose, 6.7 g/L yeast nitrogen base, 5 g/L bacto casamino acids, 10.2 g/L Na2HPO4*7 H2O, 8.56 g/L NaH2PO4*H2O) overnight at 20° C. and 180 rpm. Detection of full-length proteins on the surface of the cells was carried out by staining the cells with anti-c-myc AlexaFluor 488 (9E10, Thermo Fisher). […] After a washing step with PBSA, they were stained with an anti-HA-Alexa Fluor 488 (BioLegend) to gate for displaying yeast cells and the geometric mean fluorescence intensity (gMFI) of binding to acVHH-V104D, detected by co-staining with a Penta-His-Alexa Fluor 647 (Qiagen) (recognizing the His-tag on acVHH-V104D) was measured.
Expression of the variants on yeast was carried out in SG-CAA as described above. Full length display was assessed by staining with an anti-c-myc AlexaFluor 488 (9E10, Thermo Fisher) and binding to soluble acVHH-V104D was assessed by staining with Penta-His-Alexa Fluor 647 (Qiagen).
56 clones of the library were sequenced as explained in Example 2. Only 2 variants were obtained, namely dfM1-1 and dfM1-2. Their binding and affinity to soluble acVHH-V104D as well as full length display was assessed with yeast surface display as described in Example 2.

acVHH-WT = test: NanoBiT protein complementation assay in Jurkat T cells, acVHH-WT homodimer; format: cell-based, llama
Description: as §1
The different chains built were as follows: the first polypeptide chain comprised truncated EGFR extracellular and transmembrane domain, followed by a 2×G4S linker and cither ac VHH-V104D or ac VHH-WT, followed by a linker (SEQ ID NO:31) and 11S NanoBiT® “Large BiT”, whereas the second polypeptide chain comprised truncated HER2 extracellular and transmembrane domain, followed by a linker (SEQ ID NO:32) and either ac VHH-V104D or ac VHH-WT or ac VHH-M1 or acVHH-M2 or dfM1-1 or dfM1-2, followed by a linker (SEQ ID NO:33) and 114 NanoBiT® “Small BiT”. […] The principle of the assay is as follows: upon binding of (i.e. dimerization) of the respective ac VHH variants, the fused NanoLuc luciferase subunits are brought into close proximity (the two subunits being fused to the two different polypeptide chains, respectively), thus resulting in a functional luciferase enzyme, whose activity can be measured. […]

[4] = +/- 30 μM caffeine, normalized to acVHH-WT homodimer with caffeine
[5] = increasing concentrations of caffeine

B1: acVHH-V104D: acVHH-WT variant with point mutation V104D, SEQ ID NO:2; first antigen binding domain AB1 (protein)
VHH: QVQLVESGGGLVQAGGSLRLSCTASGRTGTIYSMAWFRQAPGKEREFLATVGWSSGITYYMDSVKGRFTISRDKGKNTVYLQMDSLKPEDTAVYYCTATRAYSDGYDYWGQGTQVTVSS
[1]
  preparative SEC profile: monomeric profile; also recorded: elutes as a defined monomeric peak
acVHH-V104D [2]; [4]
  intracellular binding with acVHH-V104D: does not show any detectable homodimerization
acVHH-V104D [2]; [5]
  intracellular binding with acVHH-V104D: does not show any detectable homodimerization

B2: acVHH-M2 (protein)
chain: QVQLVESGGGLVQAGGSLRLSCTASGRTGTIYSMAWFRQAPGKEREFLAQQRWLFRRTYYMDSVKGRFTISRDKGKNTVYLQMDSLKPEDTAVYYCTATRAYSVGYDYWGQGTQVTVSS
modifications: left off: large carriers; small tags and cut ends
acVHH-V104D [3]
  background binding signal in the absence of any small molecule: virtual absence of any background signal
  affinity towards acVHH-V104D: high affinity in the nanomolar range
  dependency of heterodimerization with acVHH-V104D on the presence of caffeine: clear dependency
acVHH-V104D [2]; [4]
  intracellular binding with acVHH-V104D: not detectable
acVHH-V104D [2]
  background signal in the absence of caffeine: strongly reduced

B3: acVHH-WT: existing thermally stable caffeine-specific single domain antibody fragment from llama used for homodimerization, SEQ ID NO:1 (protein)
VHH: QVQLVESGGGLVQAGGSLRLSCTASGRTGTIYSMAWFRQAPGKEREFLATVGWSSGITYYMDSVKGRFTISRDKGKNTVYLQMDSLKPEDTAVYYCTATRAYSVGYDYWGQGTQVTVSS
acVHH-V104D [2]; [5]
  intracellular binding with acVHH-V104D: very weak heterodimerization
acVHH-WT; +/- 30 μM caffeine
  intracellular homodimerization of acVHH-WT: shows homodimerization, which is enhanced by addition of caffeine
acVHH-WT; [5]
  intracellular homodimerization of acVHH-WT: shows homodimerization, which is enhanced by addition of caffeine

B4: acVHH-M1 (protein)
chain: QVQLVESGGGLVQAGGSLRLSCTASGRTGTIYSMAWFRQAPGKEREFLAPVALGLQSTYYMDSVKGRFTISRDKGKNTVYLQMDSLKPEDTAVYYCTATRAYSVGYDYWGQGTQVTVSS
modifications: left off: large carriers; small tags and cut ends
acVHH-V104D [3]
  background binding signal in the absence of any small molecule: virtual absence of any background signal; also recorded: does not trigger any detectable signal
  affinity towards acVHH-V104D: high affinity in the nanomolar range
  affinity (KD) to acVHH-V104D: low nM range
  dependency of heterodimerization with acVHH-V104D on the presence of caffeine: clear dependency
acVHH-V104D [2]; [4]
  intracellular binding with acVHH-V104D: weak
acVHH-V104D [2]
  background signal at very low concentrations of caffeine: strongly reduced
  background signal in the absence of caffeine: strongly reduced

B5: dfM1-1 (protein)
chain: QVQLVESGGGLVQAGGSLRLSATAYGKTGTIYSMAWFRQAPGKEREFLAPVALGLQSTYYMDSVKGRFTISRDKGKNTVYLQMDSLKPEDTAVYYAAATRAYSVGYDYWGQGTQVTVTS
modifications: left off: large carriers; small tags and cut ends
acVHH-V104D [3]
  background binding signal in the absence of any small molecule: does not trigger any detectable signal
  affinity towards acVHH-V104D: high affinity in the nanomolar range
  affinity (KD) to acVHH-V104D: low nM range
acVHH-V104D [2]; [4]
  intracellular binding with acVHH-V104D: efficient heterodimerization
acVHH-V104D [2]
  background signal at very low concentrations of caffeine: strongly reduced
  background signal in the absence of caffeine: strongly reduced

B6: dfM1-2 (protein)
chain: EVQLVESGGGLVQAGGSLRLSATAYGRTGTIYSMAWFRQAPGKEREFLAPVALGLQSTYYMDSVKGRFTISRDKGKNTVYLQMDSLKPEDTAVYYAAATRAYSVGYDYWGQGTQVTVSS
modifications: left off: large carriers; small tags and cut ends
acVHH-V104D [3]
  background binding signal in the absence of any small molecule: does not trigger any detectable signal
  affinity towards acVHH-V104D: high affinity in the nanomolar range
  affinity (KD) to acVHH-V104D: low nM range
acVHH-V104D [2]; [4]
  intracellular binding with acVHH-V104D: efficient heterodimerization
acVHH-V104D [2]
  background signal at very low concentrations of caffeine: strongly reduced
  background signal in the absence of caffeine: strongly reduced

From patent US20240400722A1, “Chemically Inducible Heterodimerizing System and A Method For Generation Thereof” (Miltenyi Biotec B.V. & Co. KG, priority 2023, published 2024)
